± gives the uncertainty stated by the source.

A short description of the series: amyloid nucleation score (Sup35N fusion, yeast selection) (log enrichment); library NNK3; higher = more nucleation; inactive = no reads after selection. In short, it runs like this: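 On medium lacking adenine and uracil, psi-negative yeast expressing peptides of 20 random codons fused to Sup35N were grown 7 days at 30°C after a 24-hour induction with 100 μM copper sulfate. Illumina sequencing of input and output plasmid inserts gave the reads, and sequences under 100 input reads were excluded. The nucleation score is the DiMSum log enrichment of output over input reads, centred on the mode score of non-aggregating sequences.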
MLFSIICNFGNKFLTYKEFT displayed an amyloid nucleation score of 0.89 ± 0.24.
In the case of MLIQPWSSSRNYVPPAEYW it was “inactive”; in that of MLIYSIVLGFKFSPPGFTSN, “inactive”; in that of MLLCDKFVVCTCIGVQVYSY, 2.19 ± 0.087.
In the case of MLLCMILPK it was 2.26 ± 0.078; in that of MLNNNRWVGVFRLCWNVVWS, “inactive”; in that of MLNWPIDRDSWRPGFDMWLG, -0.426 ± 0.6.
Consider MLRSDPS, for which the amyloid nucleation score result is “inactive”.
In the case of MLTFLVYSCGTGWVCPLLRK it was “inactive”; in that of MLYNCRQGCKRSW, 0.248 ± 0.44.
In the case of MMCFTLS it was “inactive”.
In the case of MMFARKFAIKSTKRIMVGRT it was “inactive”; in that of MMFDYLLLRGHNAQIQLWWY, “inactive”.
Turning to MMHILNGRSEVAPFYSTPIS, the amyloid nucleation score result is “inactive”.
In the case of MMLDTWVTYPMREKLDAYRV, the amyloid nucleation score result is “inactive”.
The entry for MMPDYKPR is “inactive”; for MMRNTDK it is “inactive”; for MNKNIRGYDLFKMRMMDWCM it is “inactive”.
MNLVSSIVNYCFGRWGWLVG: the amyloid nucleation score entry was “inactive”.
Regarding MNRLNPRYMMIKYMDIQKWW, the amyloid nucleation score result is “inactive”.
Turning to MPCNVKYSTVCFTA, the amyloid nucleation score result was “inactive”.
The entry for MQFEINRRVGHRSPNAYLE is “inactive”; for MRELQENVNDDS it is “inactive”.
The entry for MRLNGFLRRKGRVSNMWHTG is “inactive”.
The entry for MRLVACA is “inactive”.
In the case of MRLVICTAHWQSFYRFYIIL, the amyloid nucleation score result is “inactive”.
Consider MRMTTYSGIRVGIIERIMIN, for which the amyloid nucleation score entry is “inactive”.
In the case of MRPVT, the amyloid nucleation score result was “inactive”.
MRRTSCTVYTGKIRRIMYVV: the amyloid nucleation score entry was “inactive”.
In the case of MRYVHRCSRWYLLQQLLRIH it was “inactive”; in that of MSCTDRYEIL, “inactive”.
In the case of MSEFSQCRFKSHTFFVTSNR it was “inactive”.
Take MSFRIVFLPC: the amyloid nucleation score result was “inactive”.
In the case of MSGLENVACDYKRELAMKRS it was “inactive”; in that of MSLIRYKLG, “inactive”; in that of MSLWCTITGECKGDGWY, “inactive”.
In the case of MSNRVMLKNYSLELEEIGRK it was “inactive”.
The entry for MSRGCCINLTLQIRVFWNTM is “inactive”; for MSSFTAYLLNLR it is “inactive”.
Consider MSTLVTMYHYGVGGCVWFYL, for which the amyloid nucleation score result is “inactive”.
MSVTITGALQVVTKVPANMI: the amyloid nucleation score is 0.593 ± 0.2.
As to MSVTMMAKWTTLILGIGTGM, the amyloid nucleation score entry was “inactive”.
The entry for MSYEDTPCH is “inactive”.
In the case of MSYVSFKFVERSMGNNSGGI it was -0.137 ± 0.64; in that of MTLCLLSFRGQRSMPLYLWT, “inactive”; in that of MTSIQEF, “inactive”.
With MTSQSMKVISWCDRHRQMNS, the amyloid nucleation score is 1.03 ± 0.13.
In the case of MTTVKTDCFSQSRYYRHWET it was “inactive”.
In the case of MTVSVITAMGFTIGFFADNQ it was 0.494 ± 0.26; in that of MTYGLFVIYMRGGSNLMLHV, “inactive”; in that of MVDVNLAKRNGMNQSLHGNS, “inactive”.
Consider MVHAVPHMVDGGS, for which the amyloid nucleation score entry is “inactive”.
The entry for MVKDCITRVYFVVWFDYSRS is “inactive”; for MVQTKMSQFKSFEFARVMWH it is “inactive”.
The entry for MVTRMCYIACLVFRVWAMCR is “inactive”; for MVVVPDQLRVTGMRSGGKSG it is “inactive”; for MVYPQLYTTKVVNVVPGLGS it is “inactive”.
The figure for MWACSKYRWMHATDGVGLTY is 0.674 ± 0.17; for MWAGCGVSGPALGHAGSARR it is “inactive”.
Take MWFAKAGTCNGSWLDMLSGW: the amyloid nucleation score result was “inactive”.
Consider MWGSM, for which the amyloid nucleation score result was “inactive”.
In the case of MWLPPAVQVLLILKAVIVKL, the amyloid nucleation score result is “inactive”.
For MWVPTRHKGLYFVNVVFACH, the amyloid nucleation score entry was “inactive”.
MYDLDHSFCTLLTEVRALMK returned an amyloid nucleation score of -0.396 ± 1.4.
With MYIVRRKTICET, the amyloid nucleation score entry was “inactive”.
In the case of MYNLNVLNE, the amyloid nucleation score entry was “inactive”.
Take MYRCKKGGLCKLSGCTSKAL: the amyloid nucleation score result is “inactive”.
In the case of MYRQGGCVIHWSNVG it was “inactive”; in that of MYTISVKAMNGWYLSLKVGC, “inactive”; in that of MYTKNPSVSILCFDENGERA, “inactive”.
In the case of MYTQCLVYSR it was “inactive”; in that of MYVTIGASNKSYRLLFVARW, -0.368 ± 0.75.
For the substance NAFNL, the amyloid nucleation score result was “inactive”.
In the case of NALTNSVKLFVLQTIVVYMR, the amyloid nucleation score result is “inactive”.
The entry for NALYTSLYRLNLGFWAQMLP is “inactive”; for NAQDPIGSGYVQ it is “inactive”; for NASIRDGNMTFFSQAVTRLA it is “inactive”.
NATIFFMQ displayed an amyloid nucleation score of 0.605 ± 0.24.
In the case of NCCPIIPVDYNYNRLPIIVG it was “inactive”; in that of NCDNSNGYSTHEIEDRSTLR, “inactive”; in that of NCMFWGCVTLRADFVRTINR, 1.5 ± 0.14.
Take NCRVCCRYVNSSPDV: the amyloid nucleation score was -0.974 ± 1.7.
NCSGQTGFGPVMSYWTIDVR gave an amyloid nucleation score of -0.022 ± 0.59.
On to NCTFAGLAMFGNILN, for which the amyloid nucleation score result was “inactive”.
With NCTNFALVSNLASTRTIADW, the amyloid nucleation score entry was “inactive”.
For NDASYDLRRWWCKTAPGLSG, the amyloid nucleation score entry is “inactive”.
Take NDCLFNKILAVRSFTLLAGK: the amyloid nucleation score result is “inactive”.
In the case of NDFLCI it was “inactive”; in that of NDGPKVARMGSVR, “inactive”.
Turning to NDKYWTIHMTSLGQRLIFAE, the amyloid nucleation score amounted to 1.25 ± 0.15.
NDLSGKTCNGRRVEDRAPMA gave an amyloid nucleation score of -0.114 ± 0.44.
In the case of NDNSSATRSHSGLATRGGLV it was “inactive”; in that of NDTWCVLFRTPKLLCMSVFT, “inactive”; in that of NDVSRNLSMFNY, “inactive”.
In the case of NDWREANLF it was “inactive”.
NEVETESCIELTFPMQYWQV returned an amyloid nucleation score of 2.24 ± 0.093.
NFFITTDPPGFR: the amyloid nucleation score result is “inactive”.
The entry for NFIYILLSIINYWWCTYIVY is “inactive”; for NFLNCVFRYIYD it is 2.54 ± 0.067.
In the case of NFLRCVHFLKFFMDFNGTSG it was “inactive”; in that of NFLVSIHVFFYCWLSMFTYW, “inactive”.
In the case of NFNCSANWYHLSLLTMNHEV it was “inactive”.
As for NFRFPTNGNYGNYLKKESFV, the amyloid nucleation score result was “inactive”.
In the case of NFRVLVVNVKTFLMVVKVMF it was “inactive”; in that of NFSFELMKDHYIGLQMVV, “inactive”.
NFSIYYLDLISR registered an amyloid nucleation score of 1.95 ± 0.098.
Take NFSMMPTMLRRVWIGMCSSM: the amyloid nucleation score result was “inactive”.
The entry for NFTGSCVPVIRQMASCFSSF is “inactive”; for NFTVFYLRC it is 1.67 ± 0.12; for NFVQFSTTISFDHNCHMVGC it is “inactive”.
In the case of NFVRGTGFVGRLESLNWKV it was “inactive”; in that of NFYRCGVWHLNWYEYDVLRL, “inactive”; in that of NFYRFNIVRNNVLM, “inactive”.
As to NGFMDNCAVSCRTIIVVSYR, the amyloid nucleation score is 2.59 ± 0.074.
For NGSVSVKSLIFLDDCCSSWA, the amyloid nucleation score result was “inactive”.
NGTALLKVTLAQYVGIVTLF: the amyloid nucleation score entry was “inactive”.
For NGWLVMLYIKLTGFFP, the amyloid nucleation score entry is “inactive”.
The entry for NHLMTFLVWWLMIALLPHLD is “inactive”; for NHLVGLNMSISMCDSLNSVF it is “inactive”.
NHMCSVYRWQSLERVVCKGI: the amyloid nucleation score result is “inactive”.
Turning to NHNIHVNGFHFN, the amyloid nucleation score result was “inactive”.
In the case of NHRSG it was “inactive”; in that of NHVILKNFFLMLQCYNFTTM, “inactive”; in that of NIDNMSMVRILFNT, 1.44 ± 0.11.
The entry for NIIEPFKWTTTSLYNSDFYF is “inactive”; for NIIYRVGSQYSL it is “inactive”; for NIMYLIWWILGKRHVCNPWE it is -0.805 ± 1.1.
The figure for NINIY is -0.302 ± 0.96; for NITFISSWIMQEYTFVLCSF it is 1.96 ± 0.065; for NIVISYPP it is 0.749 ± 0.11.
Regarding NIYYLCSFLSWLTMG, the amyloid nucleation score was 2.36 ± 0.049.

The record behind these values is the supplement of paper PMC12042874.
